Measured values as given in patent US20240317871A1 (IMMUNOMIC THERAPEUTICS, published 2024).

T1: murine HVEM (murine, UniProt Q80WM9 39-206, limits assumed)
T1 construct: also called Mouse
T1 sequence (looked up): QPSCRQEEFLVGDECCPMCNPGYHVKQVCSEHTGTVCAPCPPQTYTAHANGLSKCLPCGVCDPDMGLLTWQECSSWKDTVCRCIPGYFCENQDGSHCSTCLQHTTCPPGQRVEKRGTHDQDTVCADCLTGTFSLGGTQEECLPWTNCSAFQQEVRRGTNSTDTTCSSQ

T2: human HVEM (human, UniProt Q92956 39-202, limits assumed)
T2 sequence (looked up): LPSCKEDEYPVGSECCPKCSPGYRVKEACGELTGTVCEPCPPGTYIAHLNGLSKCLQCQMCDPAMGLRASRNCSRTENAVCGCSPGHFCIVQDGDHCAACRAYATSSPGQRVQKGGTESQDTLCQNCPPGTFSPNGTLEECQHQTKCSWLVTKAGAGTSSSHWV

T3: cynomolgus monkey HVEM (cynomolgus monkey, UniProt A0A2K5W0R1 39-203)
T3 sequence: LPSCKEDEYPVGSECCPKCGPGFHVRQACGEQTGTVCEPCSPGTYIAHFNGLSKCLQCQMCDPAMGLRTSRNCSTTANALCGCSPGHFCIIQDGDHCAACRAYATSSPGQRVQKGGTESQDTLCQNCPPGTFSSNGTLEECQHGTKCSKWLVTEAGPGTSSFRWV

T4: Human HEVM recombinant protein (Sino Biological, 10334-H02H) (human, UniProt Q92956 39-202)
T4 construct: construct known only by catalogue number; also called HVEM; human HVEM
T4 sequence (looked up): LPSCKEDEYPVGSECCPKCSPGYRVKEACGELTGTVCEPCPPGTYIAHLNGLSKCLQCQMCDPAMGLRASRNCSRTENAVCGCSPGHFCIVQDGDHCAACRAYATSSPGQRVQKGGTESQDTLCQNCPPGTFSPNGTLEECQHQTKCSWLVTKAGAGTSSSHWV

T5: His-tagged human HVEM (human, UniProt Q92956 39-202, limits assumed)
T5 construct: Analyte of the BLI assay, 200 nM in PBS; not shown: His tag
T5 sequence (looked up): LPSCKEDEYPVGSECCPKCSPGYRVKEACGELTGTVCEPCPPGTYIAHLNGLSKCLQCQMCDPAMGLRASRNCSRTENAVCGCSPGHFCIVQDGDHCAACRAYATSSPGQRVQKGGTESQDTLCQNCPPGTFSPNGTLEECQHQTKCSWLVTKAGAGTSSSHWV


How the values were obtained:
[1] = target: T1, murine HVEM; experiment: ELISA
[2] = target: T2, human HVEM; experiment: ELISA
[3] = target: T3, cynomolgus monkey HVEM; experiment: ELISA
[4] = target: T4, Human HEVM recombinant protein (Sino …); experiment: competition ELISA, competitor BTLA-His
Protocol: (§1) The competitive activity of HVEM antibody to BTLA or LIGHT was evaluated with ELISA-based competitive assay. Briefly Human HEVM recombinant protein (Sino Biological, 10334-H02H, 4 ug/ml, 100 ul/well) was coated to ELISA plate (Thermo Scientific, 469949, 4C overnight). A pre-mixture of HVEM antibody clone with seral dilution and 400 nM BTLA-His (R&D systems, 9235-BT-050) or LIGHT-His (SinoBiological, 10386-H07H) recombinant protein was made and added to the ELISA plate after blocking with 3% BSA (200 ul/well, RT 2 Hr) for 1 Hr at RT. The serial dilutions of HVEM antibody clone involve 7 different concentrations, with a 3-fold dilution performed start from 100 nM for BTLA or 325 nM for LIGHT competitive assay. The concentration was the final concentration. Plate was washed with PBST; diluted HRP-anti-His (Biolegend, 652504, 1:1000) with PBS containing 5% FBS was added 100 ul per well for 1 Hr at RT. TMB substrate (KPL, 52-00-00) 100 ul per well after washing and incubate at room temperature for 15 minutes; then stop the development by adding 100 ul stop solution (KPL, 50-85-06). Plate was read at 450 nm. The IC50 was calculated using GraphPad Prism software (GraphPad Software, Inc. San Diego, CA, USA).

[5] = target: T4, Human HEVM recombinant protein (Sino …); experiment: competition ELISA, competitor LIGHT-His
Protocol: as §1

[6] = target: T5, His-tagged human HVEM; experiment: BLI OctetRed96, mAb captured, 200 nM His-HVEM
Summary of the method: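 Murine anti-human HVEM antibodies captured from culture supernatant on anti-mouse IgG Fc biosensors, then associated with 200 nM His-tagged human HVEM in PBS, followed by dissociation in PBS. koff, kon and KD obtained by curve fitting.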

| Binder | ELISA signal [1] | ELISA signal [2] | ELISA signal [3] | IC50 [4] [nM] | IC50 [5] [nM] | Kd [6] [nM] | koff [6] [s⁻¹] | kon [6] [M⁻¹ s⁻¹] |
| --- | --- | --- | --- | --- | --- | --- | --- | --- |
| Ab_001 (H5S14-1A1A) (antibody, V domains shown, also called Ab_1) VH: DVKLVESGGGLVKPGGSLKLSCAASVFTFSRYTMSWVRQTPEKRLEWVATISSGGSYTYYPDSVKGRFTISRDNAKNTLYLQMSSLKSEDTAIYYCTRGGDGLFDYWGQGTALTVSS VL: DVQITQSPSYLAASPGETITINCRASKSISKYLAWYQEKPGKTNQLLIYSGSTLQSGIPSRFSGSGSGTDFTLTISSLEPEDFAMYYCQQHNEYPWTFGGGTKLEIK | 0.057 | 3.3 | 0.072 | 2.2 | 715 | 550 | 0.154 | 280000 |
| Ab_054 (H5S19-21A17C) (antibody, V domains shown, also called Ab_54) VH: QVQLKESGPGLVAPSQSLSITCTVSGFSLTSYGVHWVRQPPGKGLEWLGVIWAGGITNYNSALMSRLSISTDNSRSQVFLKMNSLQTDDTAMYYCARDWERDSSGPFPYWGQGTLVTVSA VL: DIQMTQTTSSLSASLGDRVTISCSASQGISNYLNWYQQKPDGTVKLLIYYTSSLHSGVPSRFSGSGSGTDYSLTISNLEPEDIATYFCQQYSKLPWTFGGGTKLEIK | 0.042 | 2.5 | 2.23 |  | 369 | 20.4 | 0.00291 | 143000 |
| Ab_006 (H5S14-5A5A) (antibody, V domains shown, also called Ab_6) VH: DVQLQESGPGLVKPSQSLSLTCTVTGYSITSDFAWNWIRQFPGNKLEWMGYIVYSGSTSYNPSLKSRISITRDTSKNQFFLQLNSVTAEDTATYFCTRGMDYWGQGTSVTVSS VL: QIVLTQSPAIISASLGEEVTLTCSASSSVSYMHWYQQKSGTSPKLLIYSTSNLASGVPSRFSGSGSGTFYSLTISSVEAEDAADYYCHQWSSYLTFGAGTKLELK | 0.043 | 3.14 | 2.69 |  | 24.6 | 19.6 | 0.00692 | 353000 |
| Ab_071 (H5S20-3B7A) (antibody, V domains shown, also called Ab_149; Ab_71) VH: QVQLQQSGAELVRPGTSVKISCKASGYTFTNSWLGWVKQRPGHGLEWIGDIYPGGGYNKYNEKFRGKATLTADTSSSTAYMQLSSLTSEDSAVYFCAGAMDYWGQGTSVTVSS VL: not shown | 0.047 | 3.08 | 2.98 |  | 20.4 | 2.2 | 0.00093 | 423000 |
| Ab_011 (H5S14-12A11A) (antibody, V domains shown, also called Ab_11) VH: QVQLQQSGAELVRPGTSVKISCKASGNIFTNSWLGWIKQRPGHGLEWIGDVYPGGGYNKYNEKFKGKATLTIDTSASTAYMQLSRLTSEDSGVYFCAGAMDYWGQGTSVTVSS VL: not shown | 0.049 | 3.16 | 2.97 |  | 20.5 | 2.78 | 0.00107 | 385000 |
| Ab_012 (H5S14-13A11A) (antibody, V domains shown, also called Ab_12) VH: QVQLQQSGAELVRPGTSVKISCKASGYIFTNSWLGWIKQRPGHGLEWIGDVYPGGGYNKYNEKFKGKATLTIDTSASTAYMQLSRLTSEDSAVYFCAGAMDYWGQGTSVTVSS VL: not shown | 0.044 | 3.08 | 2.89 |  | 20.9 | 3.22 | 0.00121 | 375000 |
| Ab_013 (H5S14-14A11A) (antibody, V domains shown, also called Ab_13) VH: QVQLQQSGAELVRPGTSVKISCKASGYIFTNYWLGWIKQRPGHGLEWIGDVYPGGGYNKYNEKFKGKATLTVDTSASTAYMQLSRLTSEDSAVYFCAGAMDYWGQGTSVTVSS VL: not shown | 0.048 | 3 | 2.74 |  | 28.1 | 4.39 | 0.00149 | 340000 |
| Ab_045 (H5S15-31A12C) (antibody, V domains shown, also called Ab_45) VH: QVQLQQSGAELVRPGTSVKISCKASGYAFTNSWLGWVKQRPGHGLEWIGDIYPGGGYNKYNEKFKGKATLTADTSSSTAYMQLSSLTSEDSAVYFCAGALDYWGQGTSVTVSS VL: not shown | 0.042 | 3.08 | 2.9 |  | 31 | 7.32 | 0.00265 | 362000 |
| Ab_046 (H5S15-35A31A) (antibody, V domains shown, also called Ab_46) VH: QVQLQQSGAELVRPGTSVKISCKASGYTFTNSWLGWVKQRPGHGLEWIGDIYPGGGYNKYNEKFKGKATLTADTSSSTAYMQLGSLTSEDSAVYFCAGAMDYWGQGTSVTVSS VL: not shown | 0.042 | 2.94 | 3.03 |  | 27.2 | 4.59 | 0.00169 | 368000 |
| Ab_067 (H5S20-7B7B) (antibody, V domains shown, also called Ab_67) VH: QVQLQQSGAELIRPGTSVKISCKASGYRFTNSWLGWIKLRPGHGLEWIGDIYPGGGYNKYNEKFRGKATLTADTSSSTAYMQLSSLTSEDSAVYFCAGAMDSWGQGTSVTVSS VL: not shown | 0.047 | 3.05 | 3.04 |  | 13.6 | 2.65 | 0.00134 | 505000 |
| Ab_068 (H5S20-24A19A) (antibody, V domains shown, also called Ab_68) VH: QVQLQQSGAELVRPGTSVKISCKASGYTFTNYWLGWVKQRPGHGLEWIGDIYPGGGYIIYNEKFKGKATLTVDSSATTAYIQLNSLTSEDSAVYFCAGAMDHWGQGTSVTVSS VL: not shown | 0.044 | 3.03 | 3.04 |  | 20.5 | 5.99 | 0.00192 | 320000 |
| Ab_069 (H5S20-43A19B) (antibody, V domains shown, also called Ab_155; Ab_69) VH: QVQLQQSGAELVRPGTSVMISCKASGYTFTNYWLGWVKQRPGHGLEWIGDIYPGGGYIIYNEKFKGKATLTVDSSATTAYMQLSSLTSEDSAVYFCAGAMDYWGQGTSVTVSS VL: not shown | 0.054 | 3.13 | 3.04 |  | 22.3 | 2.97 | 0.000803 | 271000 |
| Ab_070 (H5S20-7A7A) (antibody, V domains shown, also called Ab_70) VH: QVQLQQSGAELVRPGTSVKISCKASGYRFTNSWLGWIKQRPGHGLEWIGDIYPGGGYNKYNEKFRGKATLTADTSSSTAYMQLSSLTSEDSAVYFCAGAMDSWGQGTSVTVSS VL: not shown | 0.062 | 3.23 | 3.1 |  | 17.8 | 2.33 | 0.00102 | 438000 |
| Ab_030 (H5S15-18A17A) (antibody, V domains shown, also called Ab_30) VH: QVQLQQSGAELVRPGTSVKMSCKAAGYTFTNSWIGWVKQRPGHGLEWIGDIYPGGGYTNYYEKFKVKATLTADTSSSTAYMQLSSLTSEDSAIYYCASSGAYWGQGTTLTVSS VL: not shown | 0.046 | 3.08 | 2.98 |  | 21.9 | 10.3 | 0.00419 | 405000 |
| Ab_031 (H5S15-8A17A) (antibody, V domains shown, also called Ab_31) VH: QVQLQQSGAELVRPGTSVKMSCKAAGYTFTDSWIGWVKQRPGHGLEWIGDIYPGGGYTNYNEKFKGKATLTADTSSSTAYMQLSRLTSEDSAIYYCASSGAYWGQGTTLTVSS VL: not shown | 0.042 | 3.08 | 3.06 |  | 22 | 11 | 0.00321 | 291000 |
